The source of these data is PMC3642092 (FEBS Open Bio, 2012).

For the assay, the target named is F-actin (filamentous rabbit skeletal muscle actin) (rabbit, UniProt P68135 1-377). The assay can be described thus: co-sedimentation.

B1: UTR261^T36C/S242C, oxidised (intra-chain disulphide, locked closed) (domain or fragment)
chain: MAKYGEHEASPDNGQNEFSDIIKSRSDEHNDVQKKCFTKWINARFSKSGKPPINDMFTDLKDGRKLLDLLEGLTGTSLPKERGSTRVHALNNVNRVLQVLHQNNVELVNIGGTDIVDGNHKLTLGLLWSIILHWQVKDVMKDVMSDLQQTNSEKILLSWVRQTTRPYSQVNVLNFTTSWTDGLAFNAVLHRHKPDLFSWDKVVKMSPIERLEHAFSKAQTYLGIEKLLDPEDVAVQLPDKKCIIMYLTSLFEVLPQQVTID
modifications: intra-chain disulphide between the engineered cysteines C36 and C242
With B1, binding was characterised by a dissociation constant (Kd) of 123 ± 14 µM.

B2: UTR261^T36C/S242C, reduced (domain or fragment)
chain: B1 chain
Molecule B2 gave a dissociation constant (Kd) of 74.8 ± 19 µM.

The Kd is the equilibrium constant for the complex coming apart. A high value points to a looser complex.
